Reference: patent publication US20260207798A1, “CYCLIC PEPTIDES AS PET IMAGING AGENTS OF GRANZYME B” (priority 2022, published 2026)
Bridge positions count the residues as written; N and C are the ends.

Target: T1, human Granzyme B (human, UniProt P10144 21-247)
T1 construct: Captured on a Series S Streptavidin chip for SPR; also called hGranzyme B; GzmB
Assay: SPR, Biacore 8k+, hGranzyme B captured on SA chip, single cycle kinetics, 1:1 model
Procedure: The kinetics of test peptide binding to human Granzyme B (hGranzyme B) was determined by SPR. All experiments were performed at 25° C. using the Biacore 8k+ instrument (Cytiva, Marlborough, MA). The Biacore 8k+ Insight Evaluation Software Version 3.0 was used to fit the data with a 1:1 binding model to determine the association rate constant kₐ (M⁻¹s⁻¹, where “M” ~equals molar and “s” ~equals seconds) and the dissociation rate constant kd (s⁻¹). These rate constants were used to calculate the equilibrium dissociation constant. KD (M)=kd/kₐ.
To measure the binding kinetics of peptides of interest, surfaces were prepared by a capture method to a Series S Streptavidin (SA) chip using a 1×HBS-EP+ running buffer (Cytiva). hGranzyme B was diluted to 10 μg/mL in IX HBS-EP+ and flowed over spot 2 of each flow cell on the chip at a flow rate of 10 ul/min for 20 s to achieve a level of capture of ~1100 RU. An unmodified spot 1 of each flow cell was used as a matrix binding control or reference surface. Binding kinetics were measured using single cycle kinetics at 25° C. by injecting 5 concentrations with 3-fold serial dilutions of test peptides from 0.01 μM to 1 μM. Compound dilutions were performed manually in a running buffer containing 1×HBS-EP+(Cytiva), and a final concentration of 2% DMSO. The interaction analyses over hGranzyme B, were performed using a 120 s association time and a 900 s dissociation time. All experiments were conducted at a flow rate of 50 μL/min with a data collection rate of 10 Hz.
Peptide dilution series included 2 zero concentration points (no compound) which were averaged and subtracted from the peptide concentration injection as DMSO control responses. Binding data acquired from the reference surface (matrix binding control) were subtracted from the binding data for hGranzyme B surface on the chip to determine specific binding. Next, the association phase data were solvent corrected to account for any signal fluctuation throughout the experiment due to subtle DMSO concentration differences. Corrected response data were analyzed using the Biacore 8k+ Evaluation Software Version 3.0 according to the manufacturer. SPR data for representative compounds of the disclosure are found in Table 8.

T1 sequence (P10144 21-247 limits assumed): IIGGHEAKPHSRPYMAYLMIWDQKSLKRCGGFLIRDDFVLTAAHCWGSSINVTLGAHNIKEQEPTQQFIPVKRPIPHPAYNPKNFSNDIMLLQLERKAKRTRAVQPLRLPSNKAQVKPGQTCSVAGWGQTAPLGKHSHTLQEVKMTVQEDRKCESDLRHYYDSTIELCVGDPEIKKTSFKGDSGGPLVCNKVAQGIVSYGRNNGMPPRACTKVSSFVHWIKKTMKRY

Binder | Kd
{CH2CO}-FNFEDQSVDTWQPCG-NH2 (thioether N-14; SMILES CC(C)[C@@H]1NC(=O)[C@H](CO)NC(=O)[C@H](CCC(N)=O)NC(=O)[C@H](CC(=O)O)NC(=O)[C@H](CCC(=O)O)NC(=O)[C@H](Cc2ccccc2)NC(=O)[C@H](CC(N)=O)NC(=O)[C@H](Cc2ccccc2)NC(=O)CSC[C@@H](C(=O)NCC(N)=O)NC(=O)[C@@H]2CCCN2C(=O)[C@H](CCC(N)=O)NC(=O)[C@H](Cc2c[nH]c3ccccc23)NC(=O)[C@H]([C@@H](C)O)NC(=O)[C@H](CC(=O)O)NC1=O) [Compound 24a] | 28.8 nM
{CH2CO}-FNFEDQSAKTWQPCG-NH2 (thioether N-14; SMILES C[C@@H]1NC(=O)[C@H](CO)NC(=O)[C@H](CCC(N)=O)NC(=O)[C@H](CC(=O)O)NC(=O)[C@H](CCC(=O)O)NC(=O)[C@H](Cc2ccccc2)NC(=O)[C@H](CC(N)=O)NC(=O)[C@H](Cc2ccccc2)NC(=O)CSC[C@@H](C(=O)NCC(N)=O)NC(=O)[C@@H]2CCCN2C(=O)[C@H](CCC(N)=O)NC(=O)[C@H](Cc2c[nH]c3ccccc23)NC(=O)[C@H]([C@@H](C)O)NC(=O)[C@H](CCCCN)NC1=O) [Compound 34a] | 29.3 nM
{CH2CO}-FNFEDQSAYTWQPCG-NH2 (thioether N-14; SMILES C[C@@H]1NC(=O)[C@H](CO)NC(=O)[C@H](CCC(N)=O)NC(=O)[C@H](CC(=O)O)NC(=O)[C@H](CCC(=O)O)NC(=O)[C@H](Cc2ccccc2)NC(=O)[C@H](CC(N)=O)NC(=O)[C@H](Cc2ccccc2)NC(=O)CSC[C@@H](C(=O)NCC(N)=O)NC(=O)[C@@H]2CCCN2C(=O)[C@H](CCC(N)=O)NC(=O)[C@H](Cc2c[nH]c3ccccc23)NC(=O)[C@H]([C@@H](C)O)NC(=O)[C@H](Cc2ccc(O)cc2)NC1=O) [Compound 36a] | 24.2 nM
{CH2CO}-FNFEDQNADTWQPCG-NH2 (thioether N-14; SMILES C[C@@H]1NC(=O)[C@H](CC(N)=O)NC(=O)[C@H](CCC(N)=O)NC(=O)[C@H](CC(=O)O)NC(=O)[C@H](CCC(=O)O)NC(=O)[C@H](Cc2ccccc2)NC(=O)[C@H](CC(N)=O)NC(=O)[C@H](Cc2ccccc2)NC(=O)CSC[C@@H](C(=O)NCC(N)=O)NC(=O)[C@@H]2CCCN2C(=O)[C@H](CCC(N)=O)NC(=O)[C@H](Cc2c[nH]c3ccccc23)NC(=O)[C@H]([C@@H](C)O)NC(=O)[C@H](CC(=O)O)NC1=O) [Compound 29a] | 31.4 nM
{CH2CO}-FNFEDQSRDTWQPCG-NH2 (thioether N-14; SMILES C[C@@H](O)[C@@H]1NC(=O)[C@H](CC(=O)O)NC(=O)[C@H](CCCNC(=N)N)NC(=O)[C@H](CO)NC(=O)[C@H](CCC(N)=O)NC(=O)[C@H](CC(=O)O)NC(=O)[C@H](CCC(=O)O)NC(=O)[C@H](Cc2ccccc2)NC(=O)[C@H](CC(N)=O)NC(=O)[C@H](Cc2ccccc2)NC(=O)CSC[C@@H](C(=O)NCC(N)=O)NC(=O)[C@@H]2CCCN2C(=O)[C@H](CCC(N)=O)NC(=O)[C@H](Cc2c[nH]c3ccccc23)NC1=O) [Compound 32a] | 30.3 nM
{CH2CO}-FNFEDQSKDTWQPCG-NH2 (thioether N-14; SMILES C[C@@H](O)[C@@H]1NC(=O)[C@H](CC(=O)O)NC(=O)[C@H](CCCCN)NC(=O)[C@H](CO)NC(=O)[C@H](CCC(N)=O)NC(=O)[C@H](CC(=O)O)NC(=O)[C@H](CCC(=O)O)NC(=O)[C@H](Cc2ccccc2)NC(=O)[C@H](CC(N)=O)NC(=O)[C@H](Cc2ccccc2)NC(=O)CSC[C@@H](C(=O)NCC(N)=O)NC(=O)[C@@H]2CCCN2C(=O)[C@H](CCC(N)=O)NC(=O)[C@H](Cc2c[nH]c3ccccc23)NC1=O) [Compound 33a] | 33.9 nM
{CH2CO}-FNFEDQGADTWQPCG-NH2 (thioether N-14; SMILES C[C@@H]1NC(=O)CNC(=O)[C@H](CCC(N)=O)NC(=O)[C@H](CC(=O)O)NC(=O)[C@H](CCC(=O)O)NC(=O)[C@H](Cc2ccccc2)NC(=O)[C@H](CC(N)=O)NC(=O)[C@H](Cc2ccccc2)NC(=O)CSC[C@@H](C(=O)NCC(N)=O)NC(=O)[C@@H]2CCCN2C(=O)[C@H](CCC(N)=O)NC(=O)[C@H](Cc2c[nH]c3ccccc23)NC(=O)[C@H]([C@@H](C)O)NC(=O)[C@H](CC(=O)O)NC1=O) [Compound 30a] | 25.9 nM

The remaining lines, values ahead:

Kd | Binder
10.9 nM | {CH2CO}-FNFEDQAADTWQPCG-NH2 (thioether N-14; SMILES C[C@@H]1NC(=O)[C@H](C)NC(=O)[C@H](CCC(N)=O)NC(=O)[C@H](CC(=O)O)NC(=O)[C@H](CCC(=O)O)NC(=O)[C@H](Cc2ccccc2)NC(=O)[C@H](CC(N)=O)NC(=O)[C@H](Cc2ccccc2)NC(=O)CSC[C@@H](C(=O)NCC(N)=O)NC(=O)[C@@H]2CCCN2C(=O)[C@H](CCC(N)=O)NC(=O)[C@H](Cc2c[nH]c3ccccc23)NC(=O)[C@H]([C@@H](C)O)NC(=O)[C@H](CC(=O)O)NC1=O) [Compound 27a]
23.3 nM | {CH2CO}-FNFEDQSWDTWQPCG-NH2 (thioether N-14; SMILES C[C@@H](O)[C@@H]1NC(=O)[C@H](CC(=O)O)NC(=O)[C@H](Cc2c[nH]c3ccccc23)NC(=O)[C@H](CO)NC(=O)[C@H](CCC(N)=O)NC(=O)[C@H](CC(=O)O)NC(=O)[C@H](CCC(=O)O)NC(=O)[C@H](Cc2ccccc2)NC(=O)[C@H](CC(N)=O)NC(=O)[C@H](Cc2ccccc2)NC(=O)CSC[C@@H](C(=O)NCC(N)=O)NC(=O)[C@@H]2CCCN2C(=O)[C@H](CCC(N)=O)NC(=O)[C@H](Cc2c[nH]c3ccccc23)NC1=O) [Compound 31a]
18 nM | {CH2CO}-FNFEDQSARTWQPCG-NH2 (thioether N-14; SMILES C[C@@H]1NC(=O)[C@H](CO)NC(=O)[C@H](CCC(N)=O)NC(=O)[C@H](CC(=O)O)NC(=O)[C@H](CCC(=O)O)NC(=O)[C@H](Cc2ccccc2)NC(=O)[C@H](CC(N)=O)NC(=O)[C@H](Cc2ccccc2)NC(=O)CSC[C@@H](C(=O)NCC(N)=O)NC(=O)[C@@H]2CCCN2C(=O)[C@H](CCC(N)=O)NC(=O)[C@H](Cc2c[nH]c3ccccc23)NC(=O)[C@H]([C@@H](C)O)NC(=O)[C@H](CCCNC(=N)N)NC1=O) [Compound 28a]
24 nM | {CH2CO}-FNFEDQSAWTWQPCG-NH2 (thioether N-14; SMILES C[C@@H]1NC(=O)[C@H](CO)NC(=O)[C@H](CCC(N)=O)NC(=O)[C@H](CC(=O)O)NC(=O)[C@H](CCC(=O)O)NC(=O)[C@H](Cc2ccccc2)NC(=O)[C@H](CC(N)=O)NC(=O)[C@H](Cc2ccccc2)NC(=O)CSC[C@@H](C(=O)NCC(N)=O)NC(=O)[C@@H]2CCCN2C(=O)[C@H](CCC(N)=O)NC(=O)[C@H](Cc2c[nH]c3ccccc23)NC(=O)[C@H]([C@@H](C)O)NC(=O)[C@H](Cc2c[nH]c3ccccc23)NC1=O) [Compound 35a]
